# Results published in PMC10927774, “Mechanistic and biophysical characterization of polymyxin resistance response regulator PmrA in Acinetobacter baumannii” (Frontiers in Microbiology, 2024).
# B1: Acinetobacter baumannii PmrA full length (natural protein)
# chain: MTKILMIEDDFMIAESTITLLQYHQFEVEWVNNGLDGLAQLAKTKFDLILLDLGLPMMDGMQVLKQIRQRAATPVLIISARDQLQNRVDGLNLGADDYLIKPYEFDELLARIHALLRRSGVEAQLASQDQLLESGDLVLNVEQHIATFKGQRIDLSNREWAILIPLMTHPNKIFSKANLEDKLYDFDSDVTSNTIEVYVHHLRAKLGKDFIRTIRGLGYRLGQS
# notes: Response regulator PmrA of A. baumannii, UniProt E2FGC2; full length, printed as residues 1–244 in the methods, while the introduction places the DBD at 129–223; Cloned in pET28a; In one SEC run it was incubated with BeF3- and Mg2+ (aspartate phosphorylation mimic); this is treated as a condition of the assay, not as another molecule; also called PmrA FL; full-length PmrA; source: E. coli BL21 …
# Target: the molecule itself
# Assay: SEC; full-length PmrA incubated with BeF3- and Mg2+ (5.3 mM BeSO4, 35 mM NaF, 7 mM MgCl2) to mimic phosphorylation; 25 mM Tris pH 8.0, 150 mM NaCl, 5% glycerol
protein,measurement,value
B1,stoichiometry N,2
